From publication doi:10.1101/325712 (bioRxiv, 2018)
Square brackets hold non-standard residues; d marks the D form. Ends that are not written are not given here. pS = N[C@@H](COP(=O)(O)O)C(=O)O

B1: HspB1 peptide residues 80-88, phosphorylated (peptide)
peptide: Ac-QLSSGVSEI
modifications: not fully specified
B2: HspB1 peptide residues 80-88, unphosphorylated (peptide)
peptide: Ac-QLSSGVSEI
B3: HspB1 peptide residues 76-88 phosphorylated at Ser82 (peptide)
peptide: ALSRQL[pS]SGVSEI

How the values were obtained:
[1] = biological target: T1, human FLNC domains 18-21 (residues 1943-2408), EEF-tagged (human, UniProt Q14315 1943-2408); experiment: native MS
T1 sequence: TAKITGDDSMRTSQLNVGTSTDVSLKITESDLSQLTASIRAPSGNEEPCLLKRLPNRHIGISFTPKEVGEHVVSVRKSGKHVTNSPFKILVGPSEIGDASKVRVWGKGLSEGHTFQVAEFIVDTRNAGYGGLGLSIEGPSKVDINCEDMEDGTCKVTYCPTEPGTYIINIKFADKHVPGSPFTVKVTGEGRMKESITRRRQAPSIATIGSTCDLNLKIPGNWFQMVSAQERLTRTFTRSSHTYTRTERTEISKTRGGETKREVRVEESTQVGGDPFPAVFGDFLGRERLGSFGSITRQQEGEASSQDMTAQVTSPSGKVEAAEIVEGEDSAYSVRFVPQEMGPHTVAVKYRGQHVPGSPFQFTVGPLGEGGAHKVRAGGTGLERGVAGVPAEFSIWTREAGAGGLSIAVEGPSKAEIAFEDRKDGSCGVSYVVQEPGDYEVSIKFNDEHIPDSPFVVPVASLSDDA

[2] = biological target: human HspB1 ACD (residues 84-170) (human, UniProt P04792 84-170); experiment: crystal structure
Sequence of human HspB1 ACD (residues 84-170) (P04792 84-170): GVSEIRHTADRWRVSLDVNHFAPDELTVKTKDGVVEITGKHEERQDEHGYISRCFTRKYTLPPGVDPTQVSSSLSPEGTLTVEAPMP

| Binder | Kd [1] | binding result [2] |
| --- | --- | --- |
| B1 | 110 ± 10 µM | – |
| B2 | 130 ± 17 µM | – |
| B3 | – | binds |
